Reference: the supplement of paper PMC9112550, “Optimization of the antimicrobial peptide Bac7 by deep mutational scanning” (BMC Biology, 2022)

tested on: Escherichia coli TOP10; experiment: shrunken log2 fold change of peptide-encoding DNA abundance (4.5 h post-induction vs induction); higher = less antimicrobial activity (less host growth inhibition); conditions: time post-induction: 4.5 h; library: site-saturation at positions 5, 18, 19, 20
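Note: peptides expressed intracellularly from a pBAD plasmid library in pooled LB shake-flask culture, induced with 0.3% L-arabinose, DNA abundance read by NGS, three biological replicates, DESeq2 with apeglm shrinkage.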

Point of comparison: RRIRTRPPRLPRPRPRPPMNPRP, “shrunken log2 fold change” value -0.399. Against it:
- RRIRMRPPRLPRPRPRPYLMPRP — within 0.2 log units, -0.357
- RRIRFRPPRLPRPRPRPYKIPRP — within 0.2 log units, -0.462
- RRIRPRPPRLPRPRPRPKKKPRP — higher, -0.192
- RRIRCRPPRLPRPRPRPPIGPRP — higher, -0.079
- RRIRVRPPRLPRPRPRPLLHPRP — higher, -0.114
- RRIRTRPPRLPRPRPRPAVNPRP — higher, 0.000461
- RRIRRRPPRLPRPRPRPAKMPRP — higher, 0.113
- RRIRHRPPRLPRPRPRPANSPRP — within 0.2 log units, -0.271
- RRIRVRPPRLPRPRPRPQLEPRP — higher, 0.144
- RRIRVRPPRLPRPRPRPEAWPRP — higher, 0.181
- RRIRQRPPRLPRPRPRPTCVPRP — within 0.2 log units, -0.442
- RRIRVRPPRLPRPRPRPNIYPRP — within 0.2 log units, -0.25
- RRIRWRPPRLPRPRPRPLSIPRP — higher, -0.0528
- RRIRTRPPRLPRPRPRPTGEPRP — higher, 0.178
- RRIRVRPPRLPRPRPRPCVEPRP — higher, 0.0543
- RRIRTRPPRLPRPRPRPWALPRP — within 0.2 log units, -0.23
- RRIRYRPPRLPRPRPRPRCGPRP — higher, -0.0223
- RRIRVRPPRLPRPRPRPTSRPRP — higher, -0.139
- RRIRWRPPRLPRPRPRPIIMPRP — within 0.2 log units, -0.241
- RRIRDRPPRLPRPRPRPIAPPRP — higher, 0.0634
- RRIRWRPPRLPRPRPRPCGSPRP — higher, -0.0157
- RRIRFRPPRLPRPRPRPQGGPRP — higher, 0.0852
- RRIRFRPPRLPRPRPRPANHPRP — within 0.2 log units, -0.264
- RRIRYRPPRLPRPRPRPCAEPRP — lower, -0.835
- RRIRERPPRLPRPRPRPAGLPRP — higher, -0.0519
- RRIRLRPPRLPRPRPRPCQGPRP — higher, 0.00157
- RRIRYRPPRLPRPRPRPKYWPRP — lower, -0.726
- RRIRVRPPRLPRPRPRPFDLPRP — within 0.2 log units, -0.24
- RRIRPRPPRLPRPRPRPANDPRP — higher, -0.155
- RRIRHRPPRLPRPRPRPCKHPRP — lower, -1.38
- RRIRERPPRLPRPRPRPRECPRP — higher, -0.018
- RRIRCRPPRLPRPRPRPGLGPRP — higher, 0.512
- RRIRVRPPRLPRPRPRPTKNPRP — higher, -0.00729
- RRIRPRPPRLPRPRPRPGSTPRP — higher, 0.123
- RRIRTRPPRLPRPRPRPQSPPRP — higher, -0.0309
- RRIRWRPPRLPRPRPRPKSCPRP — higher, 0.178
- RRIRCRPPRLPRPRPRPLLKPRP — higher, -0.185
- RRIRYRPPRLPRPRPRPRCDPRP — within 0.2 log units, -0.207
- RRIRRRPPRLPRPRPRPICNPRP — higher, -0.12
- RRIRLRPPRLPRPRPRPTEIPRP — higher, -0.15
- RRIRDRPPRLPRPRPRPTQLPRP — higher, -0.0815
- RRIRKRPPRLPRPRPRPLSHPRP — higher, 0.131
- RRIRSRPPRLPRPRPRPVTTPRP — higher, -0.163
- RRIRVRPPRLPRPRPRPCNAPRP — higher, -0.184
- RRIRFRPPRLPRPRPRPCGTPRP — within 0.2 log units, -0.207
- RRIRNRPPRLPRPRPRPVIWPRP — higher, -0.112
- RRIRDRPPRLPRPRPRPSVCPRP — higher, 0.294
- RRIRSRPPRLPRPRPRPTQFPRP — higher, 0.212
- RRIRLRPPRLPRPRPRPDHWPRP — higher, 0.143
- RRIRVRPPRLPRPRPRPMPKPRP — higher, 0.0271
- RRIRYRPPRLPRPRPRPTLWPRP — higher, 0.31
- RRIRYRPPRLPRPRPRPPSWPRP — higher, 0.133
- RRIRNRPPRLPRPRPRPFWYPRP — higher, 0.0148
- RRIRLRPPRLPRPRPRPCALPRP — higher, -0.0607
- RRIRTRPPRLPRPRPRPDDCPRP — higher, -0.0459
- RRIRNRPPRLPRPRPRPRLVPRP — higher, 0.114
- RRIRARPPRLPRPRPRPRQWPRP — higher, 0.68
- RRIRMRPPRLPRPRPRPNTVPRP — higher, -0.162
- RRIRCRPPRLPRPRPRPCPEPRP — higher, 1.16
